Read-outs that look alike come from different tables or passages of the source.
What was measured:
[1] = target: T1, Human CD1d/β2M (human, UniProt P15813 20-301; P61769 21-119); experiment: SPR, Protein A purified IgG
T1 construct: also called hCD1d; recombinant human CD1d

[2] = target: T2, Human CD1d on cells (human, UniProt P15813 20-335); experiment: cell-based or functional assay
T2 sequence (looked up): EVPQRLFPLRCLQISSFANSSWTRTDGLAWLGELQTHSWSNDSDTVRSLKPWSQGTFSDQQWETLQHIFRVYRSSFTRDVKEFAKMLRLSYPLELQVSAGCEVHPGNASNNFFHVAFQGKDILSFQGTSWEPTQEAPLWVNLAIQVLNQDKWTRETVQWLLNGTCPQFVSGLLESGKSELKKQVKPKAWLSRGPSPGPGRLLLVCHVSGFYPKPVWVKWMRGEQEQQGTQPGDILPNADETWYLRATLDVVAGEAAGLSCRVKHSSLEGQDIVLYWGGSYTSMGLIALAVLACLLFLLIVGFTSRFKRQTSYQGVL

[3] = target: T2, Human CD1d on cells; experiment: cell-based or functional assay; remark: listed apart in the source
[4] = target: T1, Human CD1d/β2M; experiment: SPR, transfection supernatant
[5] = target: T2, Human CD1d on cells; experiment: cell-based or functional assay; remark: listed apart in the source

B1: 402.8.87 (antibody, IgG4, V domains shown)
VH: QVQLQESGPGLVKPSETLSLTCAVYGGSFSGYYWSWIRQPPGKGLEWIGEINHAGSTNYNPSLKSRVTISVDTSKNQFSLKLSSVTAADTAVYYCARGEIYDFYKSYMDVWGKGTTVTVSS
VL: QTVVTQEPSLTVSPGGTVTLTCASSSGAVSSGNFPNWFQQKPGQAPRALIFSASNKHSWTPARFSGSLLGGKAVLTLSGVQPEDEAEYYCLLYFGDTQLGVFGGGTKVTVLG
notes: IgG4 (S228P)
[1]
  Kd: 0.344 nM
[2]
  NKT IFN-γ EC50 (moDC): 25.9 ng/mL
  NKT IL-4 EC50 (moDC): 1.01 ng/mL

B2: 402.8.86 (antibody, IgG4, V domains shown)
VH: QVQLQESGPGLVKPSETLSLTCAVYGGSFSGYYWSWIRQPPGKGLEWIGEINHAGSTNYNPSLKSRVTISVDTSKNQFSLKLSSVTAADTAVYYCARGEIYDFYNSYMDVWGKGTTVTVSS
VL: QTVVTQEPSLTVSPGGTVTLTCASSSGAVSSGNFPNWFQQKPGQAPRALIFSASNKHSWTPARFSGSLLGGKAVLTLSGVQPEDEAEYYCLLYFGDTQLGVFGGGTKVTVLG
notes: IgG4 (S228P)
[1]
  Kd: 0.357 nM
[2]
  NKT IFN-γ EC50 (moDC): 14.3 ng/mL
  NKT IL-4 EC50 (moDC): 0.721 ng/mL

B3: 401.11.24 (antibody, IgG4, V domains shown)
VH: QVQLVGSGGGLVKPGRSLRLSCAASGFTFDDYAMHWVRQAPGKGLEWVATIIWNSAIIGYADSVKGRFIVSRDNAKNSLYLQMNSLRAEDTALYYCAKDMCSSSGCPDGYFDSWGQGTLVTVSS
VL: DIQMTQSPSSVSASVGDRVTITCRASQHISSWLAWYQQKPGKAPKLLIYAASSLQSGVSSRFSGSGSGTDFTLTISSLQPEDFATYYCQQANRFPLTFGGGTKLEIKR
notes: IgG4 (S228P)
[3]
  NKT IFN-γ EC50 (THP-1): 4.26 ng/mL
  NKT IFN-γ EC50 (moDC): 0.36 ng/mL
[4]
  Kd: 0.644 nM

B4: 401.11.28 (antibody, IgG4, V domains shown)
VH: QVQLVGSGGGLVKPGRSLRLSCAASGFTFDDYAMHWVRQAPGKGLEWVATIIWNSAIIGYADSVKGRFIVSRDNAKNSLYLQMNSLRAEDTALYYCAKDMCSSSGCPDGYFDSWGQGTLVTVSS
VL: DIQMTQSPSSVSASVGDRVTITCRASQHISSWLAWYQQKPGKAPNLLIYAASSLQSGVPSRFSGSGSGTDFTLTISSLQPEDFATYYCQQANRFPLTFGGGTKLEIKR
[3]
  NKT IFN-γ EC50 (THP-1): 1.42 ng/mL
  NKT IFN-γ EC50 (moDC): 0.294 ng/mL

B5: 401.11.27 (antibody, V domains shown)
VH: QVQLVGSGGGLVKPGRSLRLSCAASGFTFDDYAMHWVRQAPGKGLEWVATIIWNSAIIGYADSVKGRFTISRDNAKNSLYLQMNSLRAEDMALYYCAKDMCSSSGCPDGYFDSWGQGTLVTVSS
VL: DIQMTQSPSSVSASVGDRVTITCRASQHISSWLAWYQQKPGKAPNLLIYAASSLQSGVPSRFSGSGSGTDFTLTISSLQPEDFATYYCQQANRFPLTFGGGTKLEIK
[4]
  binding result: no binding

B6: 401.11.26 (antibody, IgG4, V domains shown)
VH: EVQLVESGGGLVQPGRSLRLSCAASGFTFDDYAMHWVRQAPGKGLEWVATIIWNSAIIGYADSVKGRFIVSRDNAKNSLYLQMNSLRAEDMALYYCAKDMCSSSGCPDGYFDSWGQGTLVTVSS
VL: DIQMTQSPSSVSASVGDRVTITCRASQHISSWLAWYQQKPGKAPNLLIYAASSLQSGVPSRFSGSGSGTDFTLTISSLQPEDFATYYCQQANRFPLTFGGGTKLEIKR
notes: IgG4 (S228P)
[3]
  NKT IFN-γ EC50 (THP-1): 3.25 ng/mL
  NKT IFN-γ EC50 (moDC): 1.3 ng/mL
[4]
  Kd: 0.855 nM

B7: 401.11.86 (antibody, IgG4, V domains shown)
VH: QVQLVGSGGGLVKPGRSLRLSCAASGFTFDDYAMHWVRQAPGKGLEWVATIIWNSAIIGYADSVKGRFIVSRDNAKNSLYLQMNSLRAEDMALYYCAKDMCSSGGCPDGYFDSWGQGTLVTVSS
VL: DIQMTQSPSSVSASVGDRVTITCRASQHISSWLAWYQQKPGKAPNLLIYAASSLQSGVSSRFSGSGSGTDFTLTISSLQPEDFATYYCQQANRFPLTFGGGTKLEIKR
[5]
  NKT IFN-γ EC50 (THP-1): 1.29 ng/mL
  NKT IFN-γ EC50 (moDC): 0.359 ng/mL
  NKT IL-4 EC50 (THP-1): 0.509 ng/mL
  NKT IL-4 EC50 (moDC): 1.74 ng/mL

— patent US20140286957A1 (Teva, published 2014)
